In publication PMC5871715 (2018):

B1: full-length human Draxin AVEXIS prey, wild type [human] / human Netrin-1 WT bait protein (VI+V), AVEXIS [human] (parent complex)
chain 1: GALAPGTPARNLPENHIDLPGPALWTPQASHHRRRGPGKKEWGPGLPSQAQDGAVVTATRQASRLPEAEGLLPEQSPAGLLQDKDLLLGLALPYPEKENRPPGWERTRKRSREHKRRRDRLRLHQGRALVRGPSSLMKKAELSEAQVLDAAMEESSTSLAPTMFFLTTFEAAPATEESLILPVTSLRPQQAQPRSDGEVMPTLDMALFDWTDYEDLKPDGWPSAKKKEKHRGKLSSDGNETSPAEGEPCDHHQDCLPGTCCDLREHLCTPHNRGLNNKCFDDCMCVEGLRCYAKFHRNRRVTRRKGRCVEPETANGDQGSFINV
chain 2: not shown

Variants of: B1
Assay: AVEXIS; average of three repeats; read off a plot

response [A486 nm] | Variant
~0.004 | chain 1 L203A
~0.005 | chain 1 L203P
~0.004 | chain 1 L203R
~0.055 | chain 1 F208A
~0.021 | chain 1 F208R
~0.037 | chain 1 F208P
